We go through ten substances from PMC7178897.

In data set [1] the target is MG13 UFO trimer (HIV-1). Put plainly: native gel or EMSA.
Data set [2] deals with MG13 UFO trimer (HIV-1). Put plainly: negative-stain EM; purified Env proteins at 0.05 mg/ml, 2% uranyl acetate, reference-free 2D class averages.
The target of data set [3] is CNE107 chimeric UFO trimer with CNE6 gp41_(ECTO) (HIV-1). The description is as above.
Data set [4] in a line: SEC; GNL-purified Env from 293F supernatant on a Superdex 200 Increase 10/300 GL column; profile decomposed into aggregates, trimer and dimer/monomer fractions (UNICORN).
For data set [5], the target named is BG505 UFO trimer (HIV-1). Briefly: native gel or EMSA.
In data set [6] the target is BG505 UFO trimer (HIV-1). Briefly: negative-stain EM; purified Env proteins at 0.05 mg/ml, 2% uranyl acetate, reference-free 2D class averages.
Data set [7] deals with MG11 chimeric UFO trimer with CNE6 gp41_(ECTO) (HIV-1). Described as above.
Data set [8] deals with CNE6 UFO trimer (HIV-1). Put plainly: native gel or EMSA. In general terms: Mobility shift assays separate free from complexed probe on a gel.
Data set [9] deals with CNE6 UFO trimer (HIV-1). Briefly: negative-stain EM; purified Env proteins at 0.05 mg/ml, 2% uranyl acetate, reference-free 2D class averages.
Data set [10] addresses CNE5 chimeric UFO trimer with CNE6 gp41_(ECTO) (HIV-1). Described as above.

For orientation: stoichiometry N means the number of molecules, sites or subunits per partner or assembly. For the substance MG13 UFO trimer (domain or fragment), the stoichiometry N with MG13 UFO trimer (HIV-1) [1] and with MG13 UFO trimer (HIV-1) [2] was 3 each time.

In [3], “CNE107 chimeric UFO trimer with CNE6 gp41_(ECTO) (domain or fragment)” returned a stoichiometry N of 3.

For the substance CNE6 UFO trimer, in data set [4], the “trimer content (% of the SEC profile)” value is “as high as 70.1% for CNE6”. For BG505 UFO trimer (domain or fragment), the stoichiometry N with BG505 UFO trimer (HIV-1) [5] and with BG505 UFO trimer (HIV-1) [6] was 3 each time. As for “MG11 chimeric UFO trimer with CNE6 gp41_(ECTO) (domain or fragment)”, the stoichiometry N in data set [7] was determined as 3. As for CNE6 SOSIP trimer, the “trimer content (% of the SEC profile)” value in [4] is 21.3% for the SOSIP construct. On the same count and under the same terms, in the case of MG13 UFO trimer it was 85.6% for MG13.

In the case of CNE6 UFO trimer (domain or fragment), the stoichiometry N in the data set with CNE6 UFO trimer (HIV-1) [8] and with CNE6 UFO trimer (HIV-1) [9] was 3 each time. As to BG505 UFO trimer, the “trimer content (% of the SEC profile)” value in data set [4] was “a rate of proper trimer folding of about 75.5%”. “CNE5 chimeric UFO trimer with CNE6 gp41_(ECTO) (domain or fragment)”: in data set [10], the stoichiometry N amounted to 3.
